Experimental data published in patent publication US20250011363A1, “OPTIMIZED SHORTENED PEPTIDE THAT BINDS TO ACETYLCHOLINE RECEPTOR, AND USE THEREOF” (SKINMED CO., LTD., priority 2021, published 2025).

These substances were tested against acetylcholine receptor (Homo sapiens, UniProt P02708) (assay: SPR binding affinity (RU) of optimized 5mer/6mer/7mer peptides, Examples 6-7). Conditions: SPR, Resonance Units; peptides tested at 10 μM; 6mer-2 Bottom sequence.
Outline: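 Using surface plasmon resonance, binding to the acetylcholine receptor was measured for each sequence at a single 10 μM concentration. Values are response units.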

Chain of acetylcholine receptor (P02708 21-457): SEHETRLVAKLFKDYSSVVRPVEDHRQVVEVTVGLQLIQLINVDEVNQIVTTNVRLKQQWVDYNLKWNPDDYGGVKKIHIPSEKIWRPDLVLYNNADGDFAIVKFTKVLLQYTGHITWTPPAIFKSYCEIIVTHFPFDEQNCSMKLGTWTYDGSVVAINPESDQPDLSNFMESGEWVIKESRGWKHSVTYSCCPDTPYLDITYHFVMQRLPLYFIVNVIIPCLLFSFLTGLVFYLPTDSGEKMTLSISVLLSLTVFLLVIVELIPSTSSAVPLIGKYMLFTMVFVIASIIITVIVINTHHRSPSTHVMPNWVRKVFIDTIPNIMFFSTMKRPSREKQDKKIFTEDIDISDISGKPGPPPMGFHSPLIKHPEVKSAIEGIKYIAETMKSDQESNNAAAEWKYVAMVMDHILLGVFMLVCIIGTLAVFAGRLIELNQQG

Substance | Binding affinity [Ru]
6mer-2-751 (RPHWKR) | 12
6mer-2-752 (KINWRR) | 29
6mer-2-753 (RYEHRR) | 18
6mer-2-754 (KADGRR) | 12
6mer-2-755 (RYNDKK) | 18
6mer-2-756 (KPTNRK) | 26
6mer-2-757 (RIPNKR) | 19
6mer-2-758 (RFSFKK) | 18
6mer-2-759 (RFDEKK) | 18
6mer-2-760 (KIPVKK) | 15
6mer-2-761 (RTEPRK) | 29
6mer-2-762 (KFEERK) | 24
6mer-2-763 (KMKERR) | 19
6mer-2-764 (RNAVKK) | 31
6mer-2-765 (KHSPRK) | 23
6mer-2-766 (RPTFRK) | 23
6mer-2-767 (RICGRK) | 13
6mer-2-768 (KYMGRK) | 22
6mer-2-769 (RCPFRK) | 13
6mer-2-770 (KPNMKK) | 24
6mer-2-771 (KITARR) | 26
6mer-2-772 (RHPAKK) | 15

Substance | Binding affinity [Ru]
6mer-2-773 (KPDARR) | 11
6mer-2-774 (KFDARK) | 17
6mer-2-775 (KMSMKK) | 26
6mer-2-776 (RFPWRK) | 12
6mer-2-777 (KNDVRR) | 31
6mer-2-778 (RNAPKK) | 21
6mer-2-779 (KAAHRR) | 13
6mer-2-780 (KITIRK) | 31
6mer-2-781 (KTMNRK) | 28
6mer-2-782 (KPWPKR) | 18
6mer-2-783 (RDMVRK) | 32
6mer-2-784 (KAEWRK) | 26
6mer-2-785 (RHCHRR) | 31
6mer-2-786 (RMEMRK) | 30
6mer-2-787 (RIWHKK) | 19
6mer-2-788 (KKEKKK) | 30
6mer-2-789 (KNENRK) | 24
6mer-2-790 (RCAGRR) | 23
6mer-2-791 (KNMNRK) | 27
6mer-2-792 (RAEDKR) | 13
6mer-2-793 (RMHKKR) | 29
6mer-2-794 (KAEMRR) | 19

Substance | Binding affinity [Ru]
6mer-2-795 (RTHNKR) | 16
6mer-2-796 (RMMARR) | 32
6mer-2-797 (RHCIKR) | 19
6mer-2-798 (RDTPKK) | 17
6mer-2-799 (KCSAKK) | 13
6mer-2-800 (RTAWKK) | 11
6mer-2-801 (RPNIRK) | 24
6mer-2-802 (KETKRR) | 24
6mer-2-803 (RNKERK) | 18
6mer-2-804 (RNCGKR) | 21
6mer-2-805 (RDTMKK) | 12
6mer-2-806 (KHCVRK) | 30
6mer-2-807 (KIWNRK) | 28
6mer-2-808 (RKKFKK) | 21
6mer-2-809 (REPWRR) | 18
6mer-2-810 (KHAKKK) | 18
6mer-2-811 (KAMKRK) | 16
6mer-2-812 (KPPEKR) | 33
6mer-2-813 (KKMDRR) | 29
6mer-2-814 (RYMERK) | 28
6mer-2-815 (KICGRK) | 30
6mer-2-816 (RKMGKR) | 15
